This note sets out measurements from paper PMC11316719, “Unveiling the importance of the C-terminus in the sugar acid dehydratase of the IlvD/EDD superfamily” (Applied Microbiology and Biotechnology, 2024).

Data set [1] addresses T1, RlArDHT (L-arabinonate dehydratase from Rhizobium leguminosarum bv. trifolii) (Rhizobium leguminosarum, UniProt B5ZZ34, H579L).
T1 construct: gene araD; full length with N-terminal Strep-tag II (WSHPQFEK), codon-optimized, pBAT4, E. coli BL21(DE3); 579 residues without tag; [2Fe-2S] and Mg2+; homotetramer
The data set is described as follows: X-ray crystal structure, […] Å, co-crystallized. The class given is binding. The settings on record: product analog; active site of chain D, coordinated to Mg2+; [2Fe-2S] present; pH 8.5, 20 °C.

Substrate in data set [2]: C[C@@H](O)[C@H](O)[C@H](O)[C@@H](O)C(=O)O
In words: purified protein. It is filed as biochemical, Rhizobium leguminosarum. The following applies: pH 8.0, 30 °C, 50 mM Tris-HCl, 10 mM MgCl2.

Substrate in data set [3]: O=C(O)[C@H](O)[C@@H](O)[C@@H](O)CO
The data set is described as follows: purified protein. The class given is biochemical, Rhizobium leguminosarum. The following applies: pH 8.0, 30 °C, 50 mM Tris-HCl, 10 mM MgCl2.

Substrate in data set [4]: O=C(O)[C@H](O)[C@@H](O)[C@@H](O)[C@H](O)CO
The data set is described as follows: purified protein. The class given is biochemical, Rhizobium leguminosarum. The following applies: pH 8.0, 30 °C, 50 mM Tris-HCl, 10 mM MgCl2.

Substrate in data set [5]: O=C(O)[C@H](O)[C@@H](O)[C@H](O)CO
In words: purified protein. The class given is biochemical, Rhizobium leguminosarum. The following applies: pH 8.0, 30 °C, 50 mM Tris-HCl, 10 mM MgCl2.

Substrate in data set [6]: O=C(O)[C@H](O)[C@@H](O)[C@H](O)[C@H](O)CO
The data set is described as follows: purified protein. The class given is biochemical, Rhizobium leguminosarum. The following applies: pH 8.0, 30 °C, 50 mM Tris-HCl, 10 mM MgCl2.

Data set [7] deals with the molecule itself. The data set is described as follows: crystal structure; H579L co-crystallised with 2-oxobutyrate, hanging-drop vapor diffusion at 20 °C; 14% (w/v) PEG 10000, 200 mM ammonium acetate, 100 mM Tris pH 8.5; molecular replacement with PDB 5J84.

On to `CCC(=O)C(=O)O` [2-oxobutyrate], for which the “X-ray crystal structure, 2.4 Å, co-crystallized” value in data set [1] is given as 2-Oxobutyrate was refined inside the substrate-binding cavity in chain D of the H579L variant.

B1: RlArDHT (L-arabinonate dehydratase from Rhizobium leguminosarum bv. trifolii) (Rhizobium leguminosarum bv. trifolii WSM2304) (protein)
chain: MKKKAEWPRKLRSQEWYGGTSRDVIYHRGWLKNQGYPHDLFDGRPVIGILNTWSDMTPCNGHLRELAEKVKAGVWEAGGFPLEVPVFSASENTFRPTAMMYRNLAALAVEEAIRGQPMDGCVLLVGCDKTTPSLLMGAASCDLPSIVVTGGPMLNGYFRGERVGSGTHLWKFSEMVKAGEMTQAEFLEAEASMSRSSGTCNTMGTASTMASMAEALGMALSGNAAIPGVDSRRKVMAQLTGRRIVQMVKDDLKPSEIMTKQAFENAIRTNAAIGGSTNAVIHLLAIAGRVGIDLSLDDWDRCGRDVPTIVNLMPSGKYLMEEFFYAGGLPVVLKRLGEAGLLHKDALTVSGETVWDEVKDVVNWNEDVILPAEKALTSSGGIVVLRGNLAPKGAVLKPSAASPHLLVHKGRAVVFEDIDDYKAKINDDNLDIDENCIMVMKNCGPKGYPGMAEVGNMGLPPKVLKKGILDMVRISDARMSGTAYGTVVLHTSPEAAVGGPLAVVKNGDMIELDVPNRRLHLDISDEELARRLAEWQPNHDLPTSGYAFLHQQHVEGADTGADLDFLKGCRGNAVGKDSH
notes: full length with N-terminal Strep-tag II (WSHPQFEK), codon-optimized, pBAT4, E. coli BL21(DE3); 579 residues without tag; [2Fe-2S] and Mg2+; homotetramer
A word on the Km: it is the substrate concentration at which the rate is half of its maximum. In general, kcat refers to the number of substrate molecules converted per active site and unit of time at saturation. Usually kcat/Km stands for the turnover number divided by the Michaelis constant. With B1, the Michaelis-Menten constant (Km) in data set [2] stood at 240 ± 70 µM; in data set [3], 1200 ± 200 µM; in data set [4] it was 740 ± 150 µM; in data set [5], 1300 ± 300 µM; in data set [6] it was 5700 ± 1500 µM. Moreover, the turnover number (kcat) in data set [2] worked out at 17.5 ± 1 s⁻¹; in data set [3] it was 11.3 ± 0.5 s⁻¹; in data set [4] it was 11.5 ± 0.5 s⁻¹; in data set [5], 0.413 ± 0.0217 s⁻¹; in data set [6] it was 6.5 ± 0.833 s⁻¹. For the same molecule, the catalytic efficiency (kcat/Km) was 73300 ± 18300 M⁻¹ s⁻¹ in data set [2]; 9500 ± 1170 M⁻¹ s⁻¹ in data set [3]; 15500 ± 2330 M⁻¹ s⁻¹ in data set [4]; 317 ± 66.7 M⁻¹ s⁻¹ in data set [5]; 1130 ± 150 M⁻¹ s⁻¹ in data set [6].

B2: L-arabinonate dehydratase from Rhizobium leguminosarum bv. trifolii, variant H579L (enzyme, UniProt B5ZZ34 1-579, looked up)
chain: MKKKAEWPRKLRSQEWYGGTSRDVIYHRGWLKNQGYPHDLFDGRPVIGILNTWSDMTPCNGHLRELAEKVKAGVWEAGGFPLEVPVFSASENTFRPTAMMYRNLAALAVEEAIRGQPMDGCVLLVGCDKTTPSLLMGAASCDLPSIVVTGGPMLNGYFRGERVGSGTHLWKFSEMVKAGEMTQAEFLEAEASMSRSSGTCNTMGTASTMASMAEALGMALSGNAAIPGVDSRRKVMAQLTGRRIVQMVKDDLKPSEIMTKQAFENAIRTNAAIGGSTNAVIHLLAIAGRVGIDLSLDDWDRCGRDVPTIVNLMPSGKYLMEEFFYAGGLPVVLKRLGEAGLLHKDALTVSGETVWDEVKDVVNWNEDVILPAEKALTSSGGIVVLRGNLAPKGAVLKPSAASPHLLVHKGRAVVFEDIDDYKAKINDDNLDIDENCIMVMKNCGPKGYPGMAEVGNMGLPPKVLKKGILDMVRISDARMSGTAYGTVVLHTSPEAAVGGPLAVVKNGDMIELDVPNRRLHLDISDEELARRLAEWQPNHDLPTSGYAFLHQQHVEGADTGADLDFLKGCRGNAVGKDSL
modifications: KCX129 (6N-carboxylysine)
notes: L-arabinonate dehydratase (RlArDHT) from Rhizobium leguminosarum bv. trifolii, gene araD, GenBank KT260159, codon-optimised synthetic gene; His579 is the last C-terminal residue, changed to Leu; Holds a [2Fe-2S] cluster and Mg2+ in each chain; co-crystallised with 2-oxobutyrate (seen in chain D only); The introduction calls the same variant H588L, which may count the N-terminal tag residues; also …
The stoichiometry N is a count of units in the complex or per binding partner. On to B2, for which the “stoichiometry N” value in data set [7] was determined as 4.

B3: RlArDHT (L-arabinonate dehydratase from Rhizobium leguminosarum bv. trifolii) (Rhizobium leguminosarum bv. trifolii WSM2304; H579L) (protein)
chain: MKKKAEWPRKLRSQEWYGGTSRDVIYHRGWLKNQGYPHDLFDGRPVIGILNTWSDMTPCNGHLRELAEKVKAGVWEAGGFPLEVPVFSASENTFRPTAMMYRNLAALAVEEAIRGQPMDGCVLLVGCDKTTPSLLMGAASCDLPSIVVTGGPMLNGYFRGERVGSGTHLWKFSEMVKAGEMTQAEFLEAEASMSRSSGTCNTMGTASTMASMAEALGMALSGNAAIPGVDSRRKVMAQLTGRRIVQMVKDDLKPSEIMTKQAFENAIRTNAAIGGSTNAVIHLLAIAGRVGIDLSLDDWDRCGRDVPTIVNLMPSGKYLMEEFFYAGGLPVVLKRLGEAGLLHKDALTVSGETVWDEVKDVVNWNEDVILPAEKALTSSGGIVVLRGNLAPKGAVLKPSAASPHLLVHKGRAVVFEDIDDYKAKINDDNLDIDENCIMVMKNCGPKGYPGMAEVGNMGLPPKVLKKGILDMVRISDARMSGTAYGTVVLHTSPEAAVGGPLAVVKNGDMIELDVPNRRLHLDISDEELARRLAEWQPNHDLPTSGYAFLHQQHVEGADTGADLDFLKGCRGNAVGKDSL
notes: as for B1
In the case of B3, the Km in data set [2] was 820 ± 60 µM; in data set [3], 1000 ± 200 µM; in data set [4] it was 900 ± 150 µM; in data set [5], 1200 ± 200 µM; in data set [6], 5400 ± 900 µM. Besides, the kcat in data set [2] was 21.5 ± 0.5 s⁻¹; in data set [3] it was 2 ± 0.0833 s⁻¹; in data set [4] it was 1.48 ± 0.0667 s⁻¹; in data set [5], 0.107 ± 0.00333 s⁻¹; in data set [6] it was 0.667 ± 0.05 s⁻¹. Also, the kcat/Km in data set [2] was 26200 ± 1330 M⁻¹ s⁻¹; in data set [3] it was 2000 ± 333 M⁻¹ s⁻¹; in data set [4], 1580 ± 183 M⁻¹ s⁻¹; in data set [5], 88.3 ± 11.7 M⁻¹ s⁻¹; in data set [6] it was 125 ± 11.7 M⁻¹ s⁻¹.
